Data taken from patent publication US20090123447A1, “COMPOSITIONS AND METHODS TO INHIBIT RNA VIRAL REPRODUCTION” (priority 2007, published 2009).

Assays:
[1] = test system: subgenomic HCV replicon of genotype 1b; experiment: microbe, parasite or virus in culture; format: cell-based, hepatitis C virus
Method: Huh7 human hepatoma cells were cultured in Dulbecco's modified Eagle medium (DMEM; Invitrogen, Carlsbad, Calif., USA) supplemented with 10% fetal bovine serum (FBS; Invitrogen), 100 units/ml of penicillin, and 100 μg/ml of streptomycin in a 5% CO2 incubator. SgPC2 cells are G418-selected, pooled Huh7 cell clones that support the continuous replication of a subgenomic HCV replicon of genotype 1b and [29] (GenBank Accession No. AJ242652) that carries a S11791 adaptive mutation within the NS5A region. SgPC2 cells were maintained in the above medium supplemented with 0.5 mg/ml G418 (Invitrogen). G418 was removed at least 1 day before cell treatments.

[2] = test system: intracellular calcium concentration ([Ca^2+]i); experiment: [Ca^2+]i measurement with Indo-1 AM in SgPC2 cells; format: cell-based, human; conditions: 24 h, 2 mU/ml GO
Method: Briefly, on the day of the experiment, cells were washed in Krebs-Ringer phosphate buffer (KRPH; pH 7.4, containing 1.0 mM MgSO4, 1.3 mM CaCl2, 10 mM Hepes, 5 mM glucose, 125 mM NaCl, 5 mM KCl, and 10 mM sodium phosphate) and subsequently loaded with 10-20 μM Indo-1 AM (70 μl/coverslip; Molecular Probes, Inc., Eugene, Oreg., USA) containing 10 μM probenecid (Molecular Probes) for 30 min at 37° C. The attached cells were washed and bathed in KRPH/probenecid at 4° C. or room temperature until further analysis. Then, coverslips were individually submerged into KRPH and preequilibrated inside the […] fluorimeter (Hitachi) in darkness for 3 min, and [Ca^2+]i was monitored continuously at 37° C., with excitation at […] and emission at 400 and 450 nm. H2O2 and other agents were injected at different time points, as indicated under Results. [Ca^2+]i was calculated as described. Rmax was determined by adding 8-16 μM digitonin and Rmin with 10 mM ethylene glycol-bis(β-aminoethyl)-N,N,N'-tetraacetic acid (EGTA). […] The baseline, which represented unstimulated cells scanned over time, was plotted along with other measurements or subtracted from the other plots. Cells were serum-depleted, 1 day before the experiment, by incubating them overnight in DMEM plus 0.5% FBS. […] Then, CaCl2 was added before determining the Rmax for each run.

JFH1 HCV (genotype 2a) = format: cell-based, hepatitis C virus; conditions: JFH1-transfected cells, 0.25 mU/mL GO plus glucose
Method: (§1) For viral RNA transfection, JFH1, JFH1/GND, and pSGR-JFH1-Luc were linearized with XbaI and used to synthesize the corresponding positive-sense stranded HCV RNA, as previously described (68). Then, 5×10^6 Huh7 cells were rinsed with Opti-Mem (Invitrogen), mixed briefly with 10-20 μg of the in vitro transcribed RNA in 0.4 ml of Opti-Mem, and then electroporated at 260 volts and 950 μF. […] Medium was changed daily. For infection with HCV, medium collected from JFH1 RNA-transfected cells were cleared of cell debris, as described, and added to naïve Huh7 cells. Typically, 1:2 or 3:2 ratio of the virus-containing medium and fresh cell culture medium were used.
JFH1/GND was used as the negative control. […]
Intracellular JFH1 HCV RNA content was also analyzed by qRT-PCR (Taqman), using ABI7300 real time PCR system and one step RT-PCR kit from Applied Biosystems. […] All samples were analyzed in duplicates or triplicates. […] The level of 18S rRNA was also analyzed, using manufacturer-optimized protocol, as the control.
To analyze the amount of the extracellular HCV RNA, medium from the cells were cleared by low-speed centrifugation and then, treated with RNaseA at room temperature. Then, the RNA samples were extracted, using Trizol LS Reagent (Invitrogen), and analyzed for HCV RNA content by qRT-PCR.

[3] = test system: SgJFH1-Luc RNA (subgenomic JFH1 replicon); experiment: SgJFH1-Luc RNA replication in Huh7 cells, luciferase assay; format: cell-based, hepatitis C virus; conditions: Huh7 cells transfected with SgJFH1-Luc RNA
Method: as §1
SgJFH1-Luc RNA replication was also monitored by firefly luciferase reporter assay, using a kit from Promega.
To investigate whether the HCV RNA replication is modulated by ROS, Huh7 cells were transfected with the SgJFH1-Luc RNA and treated with GO plus glucose.
After 24 and 48 hours, respectively, the cells were collected in PBS, centrifuged, lysed in the reporter lysis buffer (Promega), and analyzed for luciferase activity.

JFH1-transfected cells = experiment: ATP concentration as cytotoxicity measure in JFH1-transfected cells; conditions: JFH1-transfected cells, concentrations used
Method: Determination of ATP concentrations—ATP level was measured, using Somatic Cell ATP Assay kit from Sigma-Aldrich, as previously described (68). Protein level was determined with bicinchoninic acid kit (Pierce Biotechnology, Inc., Rockford, Ill.).
ATP concentration was measured to determine if the treatments were cytotoxic to the cells.

HCV NS5A = conditions: after 24 h of GO exposure
Method: Cells were sonicated in 2× Laemmli buffer and total protein samples were analyzed for HCV NS5A level by Western blot, using monoclonal anti-NS5A antibodies (Biodesign) and the corresponding horseradish peroxidase-conjugated secondary antibodies. Chemiluminescent images were processed with an ECL kit from Amersham Pharmacia and analyzed with the IS2000 gel imaging system (Kodak).

B1: IFN-γ: interferon-γ, known to inhibit HCV RNA replication in Huh7 cells (protein, UniProt P01579 24-161, looked up)
Interferon gamma: QDPYVKEAENLKKYFNAGHSDVADNGTLFLGILKNWKEESDRKIMQSQIVSFYFKLFKNFKDDQSIQKSVETIKEDMNVKFFNSNKKKRDDFEKLTNYSVTDLNVQRKAIHELIQVMAELSPAAKTGKRKRSQMLFRG
[1]; 30 min treatment
  effect on HCV RNA replication after 30 min of treatment: no appreciable effect
[1]; SgPC2 cells, 24 h, 100 U/ml
  HCV RNA level, % of control level: about 15%

B2: GO: enzyme which catalyzes the oxidation of β-D-glucose to D-glucono-1,5-lactone and hydrogen peroxide (protein, UniProt P13006 17-605, looked up)
Glucose oxidase: LPHYIRSNGIEASLLTDPKDVSGRTVDYIIAGGGLTGLTTAARLTENPNISVLVIESGSYESDRGPIIEDLNAYGDIFGSSVDHAYETVELATNNQTALIRSGNGLGGSTLVNGGTWTRPHKAQVDSWETVFGNEGWNWDNVAAYSLQAERARAPNAKQIAAGHYFNASCHGVNGTVHAGPRDTGDDYSPIVKALMSAVEDRGVPTKKDFGCGDPHGVSMFPNTLHEDQVRSDAAREWLLPNYQRPNLQVLTGQYVGKVLLSQNGTTPRAVGVEFGTHKGNTHNVYAKHEVLLAAGSAVSPTILEYSGIGMKSILEPLGIDTVVDLPVGLNLQDQTTATVRSRITSAGAGQGQAAWFATFNETFGDYSEKAHELLNTKLEQWAEEAVARGGFHNTTALLIQYENYRDWIVNHNVAYSELFLDTAGVASFDVWDLLPFTRGYVHILDKDPYLHHFAYDPQYFLNELDLLGQAAATQLARNISNSGAMQTYFAGETIPGDNLAYDADLSAWTEYIPYHFRPNYHGVGTCSMMPKEMGGVVDNAARVYGVQGLRVIDGSIPPTQMSSHVMTVFYAMALKISDAILEDYASMQ
[1]
  effect on HCV RNA level / replication: dose-dependently suppressed
[2]
  intracellular calcium concentration: 66.4 ± 10.7 nM
JFH1 HCV (genotype 2a)
  decrease of intracellular HCV RNA content: 30±8%
[3]
  HCV RNA level by luciferase activity: decreased HCV RNA level
JFH1-transfected cells
  cytotoxicity (ATP concentration, cell survivability): did not cause any loss in cell survivability
HCV NS5A
  NS5A protein level: decrease

B3: catalase: exogenous catalase (Sigma-Aldrich) added to confirm the role of H2O2 (protein, UniProt P00432 2-527, looked up)
Catalase: ADNRDPASDQMKHWKEQRAAQKPDVLTTGGGNPVGDKLNSLTVGPRGPLLVQDVVFTDEMAHFDRERIPERVVHAKGAGAFGYFEVTHDITRYSKAKVFEHIGKRTPIAVRFSTVAGESGSADTVRDPRGFAVKFYTEDGNWDLVGNNTPIFFIRDALLFPSFIHSQKRNPQTHLKDPDMVWDFWSLRPESLHQVSFLFSDRGIPDGHRHMNGYGSHTFKLVNANGEAVYCKFHYKTDQGIKNLSVEDAARLAHEDPDYGLRDLFNAIATGNYPSWTLYIQVMTFSEAEIFPFNPFDLTKVWPHGDYPLIPVGKLVLNRNPVNYFAEVEQLAFDPSNMPPGIEPSPDKMLQGRLFAYPDTHRHRLGPNYLQIPVNCPYRARVANYQRDGPMCMMDNQGGAPNYYPNSFSAPEHQPSALEHRTHFSGDVQRFNSANDDNVTQVRTFYLKVLNEEQRKRLCENIAGHLKDAQLFIQKKAVKNFSDVHPEYGSRIQALLDKYNEEKPKNAVHTYVQHGSHLSAREKANL
[1]; SgPC2 cells, GO 24 h, 130-200 U/ml catalase or 2 μM BAPTA-AM
  effect on the suppression of HCV RNA by GO: attenuated the suppression by GO
